Data: the domain aggregation screens of Martell et al. (2025)

Assay: soluble fraction after stress (log2 fold change); higher = more stays soluble; pooled small domains, quantitative proteomics
Conditions: stress: 75 degC
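Also: 20 min heating vs room temperature control held 20 min.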

Sequence | soluble fraction (log2)
HMQKITPDNWTYIRSLIRQKWSPDQIDQWLKKHPDVGFTVSRETIYQYVKEDRQKDGDLYLSLRRAGKSY | -2.18
HMQKLKINKYKDPKGEIRYYIASTIRNGNKSSTHNLLSLGKHSDLLKEHSDVEAYLKERLNEAMESGI | -0.0843
HMQKPDIEVDFAEGDMVVVTGGAWKDTAGVITGINMQKQTVTINVELFGRETPVEISFTEIKKA | -0.117
HMQKVPDAFKAEQVQTLITRLGVSRAELARTLDVSLSTVNKWASGAVEPKGSALVLLKVLWMHGFKAL | -2.85
HMQLDDDQKEELILKLIDSLDTTKKGAPLTELAREAAKSNIGESELEEITTSLLDKGLVYEPTIGKMKR | 0.394
HMQLDLNENEKIIFEILQNNKTMQLSNLKTQTELSNKGWDKAIKSLTKQGLAKVSKIDNELIVEFL | -0.466
HMQLKFTDLRKEILRMIWEGHGPQKAYDLLNKLQQTNPSAKPATVYRALDFLIGNGFIHKVASLNAFVG | -0.59
HMQLKKDTILSYIEEKLIDSYNSNKGFTTQEISVALNMQRTNVSAILNNLVKENKLVKTKGKPVRYFLSG | -0.636
HMQLTPAQHAILAHALEHSDGKIVWFPDNIKGGARKKVLDGLLNRALITTDGTDWFVAAEGYDAMGR | -0.386
HMQLTVAVLIKNISKGQVISQGFLGFEARPERQIRGAYTNISEVLGRKAKSNIAVGTILKARHLDT | -2.87
HMQNAMQKELIDAFQKAYPDLDITKIELVYGTYYEVEAMNSTTEFTYRYDQNSKTFILAEQDNADP | -0.203
HMQNELAEARSQLAERKNIDQAKLILMKKRNISEPEAYKLLRSHAMQTNRRVAEVAESIITAESLLG | -0.0692
HMQNGNLVDVYLNWRGKYYAIKMFFPNSKMPRRSDVQDQIVKVYPDARVQSFQVSKYVPGQPFL | -2.62
HMQNLSELAYVNLRDALMQGQMKPGEELPLRPISRSFGISATPMREALLRLVTESALEMDSRGRISVP | -0.347
HMQNPYDTLGVSRDSTDAEIKKAYRKLAMEHHPDKGGDSQRFAEINNAYDNIKDMSSRQNFENDPSNFQ | 0.266
HMQNVFARKNLTSVSVDKLGEEEILLFKQSFESKNLTSSEALRDLSKKGMSEAELRKLKVRLTQL | -0.287
HMQNWFADPKFEMFEDYGDAQSFYDTETKNIYVVMAEYGQKGSNTIQEITPDSEEYIPNYEKYKEYMENK | 0.214
HMQNYLEFIGNELKALTSIPSPSGYTKDVAAYLMKTLSDMGYEPQLSNKGNVFVTIGGEGNPLVLAAHVD | 0.0285
HMQNYLEVLRLHELGMGQRKIAQQVHTSRDTIRKIIAIAENQGLNYSNLIGKTDNELSKVFG | -0.622
HMQPAGEGAILRYLSSGAVKGIGPVMAREIVRRFGTDTFRVMEQEPEKLLKVKGITEQRLQTIMESYQD | -0.198
HMQPDPAFVAWVDANPWYKENRTLRALVHDYAEEVKRQEPALIGTAFLDRVKQLVQSEHPELFD | -0.234
HMQPETIEDATNLYLEAARATLQLIEQNNVIARDVKRLLEHLDNDMARIETLLAEMLSRRDHWLRHIH | 0.148
HMQPIQPNQAKYLDGLSSKYKGKGNHSQAAQLTALRDALNAGDHAKAREIYDKLDYEPQAEAAH | 0.364
HMQPNVTRERILAAAMTVFAQKGWQKTSLDEVAAAAGMTKGAIYWHFRNKNDLFFALLDARLQRD | -2.16
HMQQAVTMQKPGRLLRNADGNGGAVRDLDVGMMLYPTGNRSELMWEVDDELGNRGWVNSTLFGLS | 0.013
HMQQDGSSSLGENMLNQELQARGVVPSEIPQEVWERVIQEAGKKSKREIYADIGLGRSLAAGFAQRLAA | 0.145

Sequence | soluble fraction (log2)
HMQQDVLKLKSGGNYKGEYINIESAYVLFKPEGGNATQRIKVNEIQMLKLADGTEVIFGGRVK | -0.237
HMQQEPNFYIVDGNTNQIVDRYYAPDSNVAHQYLGQWRQQHDPQETGNYRYGRLSSETEERYRNLAA | 0.22
HMQQFGANVRLIRKARQMSIKQLSELSGVSQTMISEVERGLKIPTIDVAGKIAAALGIDLTNLMG | -2.16
HMQQIQILPDGKIKLPDLSGTNMREAIEILHKGGLRMKPYGSGNAYQQKPAAGETVASGTTVEVLSL | 0.151
HMQQLAEQIPTDRPYISIAEAVVLFGISRDTIYRQIRKGNIPAVNLGERLTRISRIHIEAMFPKV | -0.305
HMQQNYREMHKVKKGETLFGIARRYEITVDQLIKANPDMNAVGYELKKGDYIFIPYPDGQKP | -0.427
HMQRAEQLPAELAAVFRAETEAWGFFERQPPGYQRVAIHWVASAKQEATRLRRLAKLIEESAAGRR | -1.61
HMQRDTIAISAIPTAIKTYLSSTYPTDTLVHAFVNKDQSIVVISKNIDFYATSFSTANAFIKRIQLPA | -1.41
HMQRFIHITVSDVHQATRLLEEEMQLTNYSVAENNAIKIFEFTYEPQEINHLFGKNGIEVSSLFIGS | -0.0559
HMQRNLILKLDTDQPEIYKKLESIFVEINGLLVPFFIEKIIWSKQDSLNILFKNSSEALVEQLIGKNVFLP | 0.2
HMQRSVNYSELHEIKERVFDALYSSPMSMPDLLAWLKGDEEHTISVIRLMQDNGDIEMGEDGRLAVV | -0.383
HMQSISLEEAKSAALDDAQLGIDEVEFLKTERNTDGDTSYYDIQFLVNGTIYKYQINTETGAILHVDYEA | 0.0632
HMQSITAGDKVRVKNYTVSGGKKRGKVYGGAGTFVVYYEKYDVISVTGDRVVIGIGKAVTAAVHIDDLEK | -2.07
HMQSKSEINELPKSIHMAFSPKNFELFIDNLKINEIDFSNWKGELNTIQERVDGQRQIWIQDPQGYWIEIN | -0.0964
HMQSLIVPVPKPEDDPVYKDGIKQDPVEVVSIWLGRDYLNMILNLKVSTGKGHTFGIVEDVS | -0.157
HMQSNDTAEIEAVVKEIMAANERVVNDYRSGNTKVVSFFVGQVMKATKGKANPKVVNEVLAKLLK | -0.823
HMQSVPELDQQFKIAIENNDFIKLAQLKEQGYHPSKEVMQSLSNTTPNNTIIAVQKIFGLKA | 0.546
HMQSVSANSVQKQLADIIDGEDKTHPLSDRELTEKLVAQGVQISRRTVAKYREAMGIPGASGRKQ | -0.0543
HMQTAAANPSPESILQAREAAGLSQSEAGALIYSGLRSWQHWEWGTRRMHPGLFELFLKKTGQI | -1.83
HMQTKMVYSDLVNSIKSEQVSSMLVSGNTVTVTLTNGDKAKVKIPSLDTLQADVGKEMNDQMDKGTLKQE | 0.18
HMQTKNYVYFNNTENWSTVNVYVWSSKDSTYMSWPGKAMESIGNNTYRFELPNGAEYAIFNNGSAQTVD | -0.335
HMQTKSDMVYHRVREDIVNGVFAPGERLLISAVAKQYGVSEIPVREAFRVLSQEGFLKTRPNSGFVVS | -0.44
HMQTMTAGERREAILRELEQAQGPVSASALAKRFHVSRQAVVGDVAMLRALNSPIAATPRGYVLTR | -0.322
HMQTMTDDQVMQYVISQQEKGATQQDIVSKLLQKGVTVDQMRRIRKKYEAQQSQPGALDLTGSS | 0.654
HMQTNEAIINQAVQAAEAQNITTRSQAVDALKANGMTEAQARQLAVQRGISYDQLINELFPME | 0.0149
HMQTPVTVGDTMPNLIGTPKRLLLELLNRTDITVKLTGDGYVTAQSPAAGTPIAKGMIIELSL | -2.17

Sequence | soluble fraction (log2)
HMQTQVEVLVKYVLEDGTVYKEDKVSADIGAILDSGDLPMLSNDMKFIDDFLFYEVKESDNVIERKVAKLV | -0.782
HMQTQYIVDTKTTLLVRTGPGKSNSQFGRLKNGETINVYAIKNGWAEISYNGKTGYVSEQYIKLA | -3.59
HMQTTDTGAIETIVDELMAANPDKVEAYRGGKTGLQGFFMGQVMKQLGGQGNPKVISAIVTEKLE | 0.603
HMQTTPAGHELLIRYFANGNIRERGMMKDGKRNGIWIFYDESGMEIRKTKYKMGKIISDYDLN | -2.6
HMQTTQQLIRNLRLKQAATLLADKRHSITEVATLTGFTHPTYFATAFREMFGVSPSEYMEQHI | -1.49
HMQTYNQLKRGMTEWIQAGQKQKAYELFAGVAGQLSLSSAAGKKQYNELVTILNRAGFGIPLE | -1.12
HMQVEMVLSQEAHEWLLQRGFIPEYGAREMDRVIAAHLKPLLMREILFGTLKAGGKVRVQVENGALKLQP | -3.08
HMQVLSESDVEDIKAISGGDKAYDNLMEWAGSKLSKQDAKDYDDVLATGNKTAITFAVKALMAQYENAN | -0.198
HMQVPFGFQRNPSTGTLEEKAEEQLIINQVLSLKNSGIGVSEISKRLGELSVSRIYRIINTAKKNAS | -0.812
HMQVSDANQLTDVVKSIIKQYPVEVEKYKSGKKALFGFFMGKVMENLKGKSNPKILKNVLTEILD | 0.22
HMQVSDTNTLEQFAKEVIEANPKAVEDYHQNPLAIGFLVGQLMKVSKGSANPQTGKEILEKLL | -0.112
HMQVSDVTTIRALVEEVLSSSPQQLAQYRAGKLSLKGYFVGQVMKKGKGQLNAAAVNNLLDEIL | -2.41
HMQVSEQVQRLLDALENDTLTTKELMDRLGLKHRPTFRKNYLLPSMKLGLVEMTIPDKPNSSRQKYRRRQ | -0.566
HMQVTEVDYGTFMKMVEEKNVGEVEVGNSMIVFTDKDGKAIYKTGAMNDPNLTERLYNAGASFTKE | 0.144
HMQVTGLTAENAHRVTMIREKGTDHPPVPFHFRKEHHGTGNYVHLYGNPEDRNELHSRDFKDWEAVAFK | 0.211
HMQVVDWSQVDKEDYLLATKRRAVSTGELKFLLLNNLTYDLTQTRFFKGMDASYYYEGYNLYQTGE | 0.0696
HMQWGKVRRLPSGRYQASYVHKGTRYTAPETYTVQGRAHGWIESERRLIVTDTWTPPDTRPS | -1.24
HMQWLDSIRSRLRVGQTISYFEPRENASSSGLIIELRRKRVLVLEIATQKRWLIEYAAINVDG | -0.279
HMQWQPSEEAMQRLEQHGIPRAFSFSQLDAFVLQGQEQGSNRNDWNTRFFRFIKNQWVYAQN | -2.59
HMQYDSYTVEEPAKLLDWLLAHLRQSRTKIKATLQGHGIKVNGKTVTQFDYPLEPGMKIRVSLTK | -1.24
HMQYKTRVINLSILEVGMVLGRDLINKDGKIIVKKDVAISDFLKDHLIGLSKIKEIEPQIYIKV | -1.15
HMQYSIQVNKLLKAMREDVWYTANEILDLLKLKSKETLRKNYLDPAINNKLIILELPDKPTSRNQRYKI | -2.03
HMQYTQKTMYINDSYVNLRKSASTSSDIIMVVELNTKLTVIGEDGDWYKVKTSSGNAYVLKTLLSNEKKET | -3.22
HMQYTTDEVRERVLSVLNQLLLRWIVREGKDMFNIQANAVEISEGIKGELNTELEKIGLAATGFQIDSV | -0.393
HMRADRLISMLMLLQARGKITAEELAVELGVSQRTIYRDIEALSFAGVPVYAERGPGGGIGLLEPY | -1.73
